These results are taken from the supplement of paper PMC10724198.

The data set concerns Saccharomyces cerevisiae. The data set can be described thus: protein stability index of tFT-peptide fusion (C-terminal peptide) (PSI (0-1 scale)); higher = more stable (slower turnover). The settings on record: temperature: 30 C. The method, then: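 MPS profiling in S. cerevisiae of the yeast C-terminome library: the last 12 aa of each annotated ORF are fused to the C-terminus of a sfGFP-mCherry timer, after a GGGS linker. Cells are FACS-sorted into 8 mCherry/sfGFP bins and deep-sequenced. PSI runs from 0 (unstable) to 1 (stable); wild type and das1Δ backgrounds, two technical replicates each.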

Setting [1] is: genetic background: das1 deletion.

± gives the standard deviation of the averaged measurements.

Take CDSEMFASSKDE [ERI1 C-terminal 12 aa]: the protein stability index was 0.698 ± 0.0072 under setting [1] and 0.74 ± 0.053 (genetic background: wild type).

On to CFPDDIFEYAVE [GLG1 C-terminal 12 aa], for which the protein stability index runs as follows: under setting [1], 0.768 ± 0.015; (genetic background: wild type) 0.76 ± 0.0098.

With CGKCHSVYKVNA [RPS31 C-terminal 12 aa], the protein stability index reads like this: under setting [1], 0.70314 ± 0.00059; (genetic background: wild type) 0.624 ± 0.041.

As to CGLDGKIVIYTI [ARC40 C-terminal 12 aa], the protein stability index reads like this: under setting [1], 0.6819 ± 0.0035; (genetic background: wild type) 0.6704 ± 0.0027.

Regarding CKSNKKHKQRQG [RTC6 C-terminal 12 aa], the protein stability index by setting is: under setting [1], 0.701 ± 0.031; (genetic background: wild type) 0.601 ± 0.02.

For the sequence CKTLNYARPQSN [BNA1 C-terminal 12 aa], the protein stability index reads like this: under setting [1], 0.6906 ± 0.0025; (genetic background: wild type) 0.727 ± 0.031.

Consider CNNVLYIRELPN [SMX3 C-terminal 12 aa], for which the protein stability index runs as follows: under setting [1], 0.689 ± 0.016; (genetic background: wild type) 0.6801 ± 0.0029.

For CPSVEEIANETE [GCV2 C-terminal 12 aa], the protein stability index runs as follows: under setting [1], 0.696 ± 0.013; (genetic background: wild type) 0.653 ± 0.0098.

“CVAGAHFESLLD [YNL144W-A C-terminal 12 aa]”: the protein stability index by setting is: under setting [1], 0.702 ± 0.0074; (genetic background: wild type) 0.744 ± 0.03.

For CVVGTLGSDLKS [YPR150W C-terminal 12 aa], the protein stability index by setting is: under setting [1], 0.7093 ± 0.0042; (genetic background: wild type) 0.697 ± 0.014.

Turning to DAEGQENAASSE [RIM1 C-terminal 12 aa], the protein stability index was determined as 0.67571 ± 0.00047 under setting [1] and 0.67 ± 0.0069 (genetic background: wild type).

DATSTLSSQPLD [MSP1 C-terminal 12 aa]: the protein stability index by setting is: under setting [1], 0.7244 ± 0.0059; (genetic background: wild type) 0.695 ± 0.037.

With DCGWVSDAYKNH [LCL2 C-terminal 12 aa], the protein stability index under setting [1] stood at 0.735 ± 0.019 and the protein stability index (genetic background: wild type) is 0.724 ± 0.043.

Regarding DDDEEDEIVEVA [HGH1 C-terminal 12 aa], the protein stability index was determined as 0.698 ± 0.033 under setting [1] and 0.6572 ± 0.0019 (genetic background: wild type).

On to DDDGDYFEHDEL [KAR2 C-terminal 12 aa], for which the protein stability index came out at 0.688 ± 0.017 under setting [1] and 0.6679 ± 0.00099 (genetic background: wild type).

Regarding DDGDSDSWDTNW [CEX1 C-terminal 12 aa], the protein stability index came out at 0.701 ± 0.024 under setting [1] and 0.702 ± 0.014 (genetic background: wild type).

As to DDQDAISNQEKK [EIS1 C-terminal 12 aa], the protein stability index reads like this: under setting [1], 0.712 ± 0.057; (genetic background: wild type) 0.701 ± 0.038.

In the case of DDRPIYKRFFSS [HXT9 C-terminal 12 aa], the protein stability index was 0.7117 ± 0.0052 under setting [1] and 0.654 ± 0.023 (genetic background: wild type).

Regarding DEDDGMIIGSLW [AEP2 C-terminal 12 aa], the protein stability index runs as follows: under setting [1], 0.7004 ± 0.0057; (genetic background: wild type) 0.708 ± 0.013.

Turning to DEELHPLSDEGM [DPP1 C-terminal 12 aa], the protein stability index by setting is: under setting [1], 0.691 ± 0.011; (genetic background: wild type) 0.726 ± 0.061.

Turning to DEEREDDNYVPQ [CBC2 C-terminal 12 aa], the protein stability index came to 0.689 ± 0.028 under setting [1] and 0.671 ± 0.022 (genetic background: wild type).

As for DEKVKKMVENLQ [TRS23 C-terminal 12 aa], the protein stability index was determined as 0.7295 ± 0.0065 under setting [1] and 0.738 ± 0.077 (genetic background: wild type).

On to “DFLTLVQTNSDT [YPL250W-A C-terminal 12 aa]”, for which the protein stability index under setting [1] came to 0.712 ± 0.0071 and the protein stability index (genetic background: wild type) was found to be 0.722 ± 0.038.

With DFNSKSKKKNDK [MIN6 C-terminal 12 aa], the protein stability index is, setting by setting: under setting [1], 0.697 ± 0.024; (genetic background: wild type) 0.6535 ± 0.0044.

DGPGLNNFGITL [BMT2 C-terminal 12 aa]: the protein stability index turned out to be 0.6975 ± 0.00032 under setting [1] and 0.699 ± 0.035 (genetic background: wild type).

Regarding DIEINDDLNGVL [VPS41 C-terminal 12 aa], the protein stability index is, setting by setting: under setting [1], 0.653 ± 0.016; (genetic background: wild type) 0.708 ± 0.053.

With DIFEDSSDEEQS [SPL2 C-terminal 12 aa], the protein stability index under setting [1] is 0.7179 ± 0.00076 and the protein stability index (genetic background: wild type) was determined as 0.727 ± 0.084.

As for DKHEQPQIESPK [CFD1 C-terminal 12 aa], the protein stability index runs as follows: under setting [1], 0.7 ± 0.026; (genetic background: wild type) 0.684 ± 0.021.

DKKLEEQLRDLV [MTC3 C-terminal 12 aa]: the protein stability index by setting is: under setting [1], 0.6866 ± 0.0029; (genetic background: wild type) 0.689 ± 0.052.

As for DKSTFGLSPVKI [GRS2 C-terminal 12 aa], the protein stability index by setting is: under setting [1], 0.691 ± 0.033; (genetic background: wild type) 0.666 ± 0.0084.

In the case of DLDFLGSDIEFE [HFM1 C-terminal 12 aa], the protein stability index worked out at 0.718 ± 0.016 under setting [1] and 0.7077 ± 0.002 (genetic background: wild type).

As to DLESLTAKLIQG [HCA4 C-terminal 12 aa], the protein stability index is, setting by setting: under setting [1], 0.7 ± 0.022; (genetic background: wild type) 0.67282 ± 0.00041.

Consider DLIDDKTNRGRR [PRP2 C-terminal 12 aa], for which the protein stability index was 0.696 ± 0.029 under setting [1] and 0.697 ± 0.023 (genetic background: wild type).

Consider DLIKEHSKDIQV [HCH1 C-terminal 12 aa], for which the protein stability index is, setting by setting: under setting [1], 0.6872 ± 0.0016; (genetic background: wild type) 0.691 ± 0.012.
